Experimental data: the supplement of paper PMC7877785
± gives the uncertainty stated by the source.

Test: self-splicing fitness, log relative to wild type (ln ratio); higher = more splicing; Tetrahymena group I intron in knt gene, E. coli kanamycin selection, DiMSum; sequences stand for … in CUCUCU…GGAGGGAAAAGUUAUCAGGCAUGCACCUGGUAGCUAGUCUUUAAACCAAUAGAUUGCAUCGGUUUAAAAGGCAAGACCGUCAAAUUGCGGGAAAGGGGUCAACAGCCGUUCAGUACCAAGUCUCAGGGGAAACUUUGAGAUGGCCUUGCAAAGGGUAUGGUAAUAAGCUGACGGACAUGGUCCUAACCACGCAGCCAAGUCCUAAGUCAACAGAUCUUCUGUUGAUAUGGAUGCAGUUCACAGACUAAAUGUCGGUCGGGGAAGAUGUAUUCUUCUCAUAAGAUAUAGUCGGACCUCUCCUUAAUGGGAGCUAGCGGAUGAAGUGAUGCAACACUGGAGCCGCUGGGAACUAAUUUGUAUGCGAAAGUAUAUUGAUUAGUUUUGGAGUACUCGUGGUCG
Outline: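 DiMSum derived fitness as the error-weighted combination of fold changes across replicates, kanamycin versus no kanamycin, normalised to wild type. E. coli BL21(DE3) held the library, which randomised all eight P1ex-region intron nucleotides within the knt kanamycin-resistance gene on pET-22b(+). Six replicate transformations grew overnight at 37°C or 30°C on LB agar with or without 25 μg/mL kanamycin, also containing 100 μg/mL carbenicillin, 50 μM IPTG and 0.2% rhamnose, and pooled colonies were amplicon-sequenced on an Illumina HiSeq 2500.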

Row | Sequence | self-splicing fitness (ln) (30 °C) | self-splicing fitness (ln) (37 °C)
1 | CGUUAGCAAUAUUACGUAUG | -2.12 ± 0.097 | -0.357 ± 0.097
2 | CGUUAGCAAUAUUACGUCUG | -0.914 ± 0.11 | 0.164 ± 0.13
3 | CGUUAGCAAUAUUACGUGCU | -2.71 ± 0.2 | -1.64 ± 0.21
4 | CGUUAGCAAUAUUACGUUAG | -0.796 ± 0.081 | -0.539 ± 0.1
5 | CUAAAGCAAUAUUACGAAAC | -3.29 ± 0.45 | -2.67 ± 0.41
6 | CUAAAGCAAUAUUACGAACU | -5.08 ± 0.38 | -2.04 ± 0.19
7 | CUAAAGCAAUAUUACGAAUA | -2.73 ± 0.23 | -1.94 ± 0.24
8 | CUAAAGCAAUAUUACGAAUU | -3.57 ± 0.29 | -3.9 ± 0.36
9 | CUAAAGCAAUAUUACGACCG | 0.565 ± 0.087 | 0.104 ± 0.11
10 | CUAAAGCAAUAUUACGACGG | -0.113 ± 0.051 | 0.466 ± 0.082
11 | CUAAAGCAAUAUUACGAGUC | -4.51 ± 0.3 | -2.96 ± 0.31
12 | CUAAAGCAAUAUUACGAUAC |  | -2.32 ± 0.31
13 | CUAAAGCAAUAUUACGCAGG | -0.529 ± 0.12 | -1.09 ± 0.19
14 | CUAAAGCAAUAUUACGCAGU | -3.13 ± 0.31 | -3.43 ± 0.32
15 | CUAAAGCAAUAUUACGCCAU | -3.34 ± 0.33 | -1.36 ± 0.27
16 | CUAAAGCAAUAUUACGCCGG | -0.951 ± 0.16 | -0.177 ± 0.18
17 | CUAAAGCAAUAUUACGCCGU | -3.75 ± 0.27 | -2.39 ± 0.25
18 | CUAAAGCAAUAUUACGCUUC | -3.03 ± 0.22 | 
19 | CUAAAGCAAUAUUACGGAAG | -0.274 ± 0.062 | 0.0341 ± 0.083
20 | CUAAAGCAAUAUUACGGAUA | -3.45 ± 0.19 | -2.36 ± 0.2
21 | CUAAAGCAAUAUUACGGCAA | -3.27 ± 0.18 | -1.35 ± 0.15
22 | CUAAAGCAAUAUUACGGUCU | -3.74 ± 0.21 | -3.69 ± 0.29
23 | CUAAAGCAAUAUUACGUACU | -3.28 ± 0.17 | -2.57 ± 0.22
24 | CUAAAGCAAUAUUACGUCAC | -2.66 ± 0.14 | -2.62 ± 0.22
25 | CUAAAGCAAUAUUACGUGGA | -3.7 ± 0.2 | -2.64 ± 0.19

Row | Sequence | self-splicing fitness (ln) (30 °C) | self-splicing fitness (ln) (37 °C)
26 | CUAAAGCAAUAUUACGUUGG | -2.52 ± 0.12 | -0.891 ± 0.1
27 | CUAAAGCAAUAUUACGUUGU | -3.91 ± 0.12 | -3.06 ± 0.15
28 | CUAAAGCAAUAUUACGUUUC | -3.78 ± 0.18 | -2.69 ± 0.23
29 | CUACAGCAAUAUUACGACGC | -3.16 ± 0.34 | -2.08 ± 0.27
30 | CUACAGCAAUAUUACGAGUA | -3.39 ± 0.18 | -1.71 ± 0.12
31 | CUACAGCAAUAUUACGCACG | -0.609 ± 0.07 | 0.378 ± 0.08
32 | CUACAGCAAUAUUACGCAGC | -2.28 ± 0.24 | -1.75 ± 0.36
33 | CUACAGCAAUAUUACGCCUG | -1.43 ± 0.1 | -0.209 ± 0.097
34 | CUACAGCAAUAUUACGCUCC | -3.45 ± 0.24 | -2.11 ± 0.32
35 | CUACAGCAAUAUUACGGCGC | -3.96 ± 0.29 | -1.68 ± 0.39
36 | CUACAGCAAUAUUACGGCGG | -1.34 ± 0.084 | -1.47 ± 0.094
37 | CUACAGCAAUAUUACGGGGG | -3.39 ± 0.2 | -2.26 ± 0.15
38 | CUACAGCAAUAUUACGUAGC | -3.76 ± 0.26 | -2.54 ± 0.33
39 | CUACAGCAAUAUUACGUUUC | -3.69 ± 0.16 | -2.7 ± 0.21
40 | CUAGAGCAAUAUUACGAAGA | -3.61 ± 0.28 | -1.94 ± 0.43
41 | CUAGAGCAAUAUUACGAAGU | -2.56 ± 0.26 | 
42 | CUAGAGCAAUAUUACGACCA | -2.61 ± 0.23 | -1.15 ± 0.28
43 | CUAGAGCAAUAUUACGACUG | 0.0552 ± 0.11 | -0.585 ± 0.14
44 | CUAGAGCAAUAUUACGAGAU | -3.54 ± 0.17 | -1.67 ± 0.15
45 | CUAGAGCAAUAUUACGAUAA | -2.85 ± 0.21 | -1.3 ± 0.23
46 | CUAGAGCAAUAUUACGAUUA | -2.49 ± 0.23 | -2.26 ± 0.23
47 | CUAGAGCAAUAUUACGCCAG | -0.97 ± 0.1 | -0.759 ± 0.21
48 | CUAGAGCAAUAUUACGCCUC | -3.5 ± 0.2 | -2.88 ± 0.34
49 | CUAGAGCAAUAUUACGCGAG | -0.514 ± 0.11 | 0.0831 ± 0.13
50 | CUAGAGCAAUAUUACGCGGU | -1.42 ± 0.092 | -0.641 ± 0.13

Row | Sequence | self-splicing fitness (ln) (30 °C) | self-splicing fitness (ln) (37 °C)
51 | CUAGAGCAAUAUUACGCUGG |  | -2.1 ± 0.33
52 | CUAGAGCAAUAUUACGGAUG | -0.4 ± 0.095 | 0.311 ± 0.11
53 | CUAGAGCAAUAUUACGGCAC |  | -0.856 ± 0.49
54 | CUAGAGCAAUAUUACGGCUA | -3.41 ± 0.31 | -1.17 ± 0.21
55 | CUAGAGCAAUAUUACGGUGC | -3.31 ± 0.26 | -2.32 ± 0.37
56 | CUAGAGCAAUAUUACGGUGU | -4.1 ± 0.19 | -2.92 ± 0.27
57 | CUAGAGCAAUAUUACGUAAA | -3.81 ± 0.24 | -1.84 ± 0.25
58 | CUAGAGCAAUAUUACGUCAC | -3.34 ± 0.36 | -1.72 ± 0.29
59 | CUAGAGCAAUAUUACGUCAG | -0.419 ± 0.08 | -0.271 ± 0.11
60 | CUAGAGCAAUAUUACGUGCG | -0.299 ± 0.083 | -0.255 ± 0.098
61 | CUAGAGCAAUAUUACGUGGC | -3.87 ± 0.24 | -1.8 ± 0.23
62 | CUAGAGCAAUAUUACGUUAG | -1.27 ± 0.066 | -0.217 ± 0.096
63 | CUAGAGCAAUAUUACGUUUU | -3.96 ± 0.2 | -3.8 ± 0.25
64 | CUAUAGCAAUAUUACGAGAG | -3.63 ± 0.23 | -2.73 ± 0.24
65 | CUAUAGCAAUAUUACGAUAG |  | -2.54 ± 0.39
66 | CUAUAGCAAUAUUACGAUCU | -3.99 ± 0.39 | -1.91 ± 0.33
67 | CUAUAGCAAUAUUACGAUUA | -3.05 ± 0.29 | -0.967 ± 0.19
68 | CUAUAGCAAUAUUACGCAGU | -3.51 ± 0.2 | -2.55 ± 0.27
69 | CUAUAGCAAUAUUACGCCCA | -3.06 ± 0.37 | -1.7 ± 0.43
70 | CUAUAGCAAUAUUACGCCCG | -0.353 ± 0.24 | -0.0929 ± 0.34
71 | CUAUAGCAAUAUUACGCGAG | -1.85 ± 0.29 | 0.335 ± 0.21
72 | CUAUAGCAAUAUUACGCUAG | -3.14 ± 0.41 | -2.99 ± 0.47
73 | CUAUAGCAAUAUUACGCUUC | -2.46 ± 0.36 | -1.14 ± 0.31
74 | CUAUAGCAAUAUUACGGUCG | 0.227 ± 0.073 | 0.586 ± 0.11
75 | CUAUAGCAAUAUUACGGUGC | -3.69 ± 0.28 | -2.75 ± 0.29

Row | Sequence | self-splicing fitness (ln) (30 °C) | self-splicing fitness (ln) (37 °C)
76 | CUAUAGCAAUAUUACGUAGU | -2.88 ± 0.16 | -2.26 ± 0.23
77 | CUAUAGCAAUAUUACGUCAC | -3.4 ± 0.28 | -1.77 ± 0.31
78 | CUAUAGCAAUAUUACGUGAC | -1.2 ± 0.15 | -0.55 ± 0.16
79 | CUAUAGCAAUAUUACGUUAG | -2.54 ± 0.16 | -2.67 ± 0.19
80 | CUAUAGCAAUAUUACGUUAU | -3.27 ± 0.21 | -2.38 ± 0.32
81 | CUAUAGCAAUAUUACGUUCU | -3.41 ± 0.35 | -3.02 ± 0.47
82 | CUCAAGCAAUAUUACGAAGG | -1.11 ± 0.071 | -1.42 ± 0.15
83 | CUCAAGCAAUAUUACGACAG | -1.19 ± 0.062 | -0.407 ± 0.082
84 | CUCAAGCAAUAUUACGACUG | -3.48 ± 0.17 | -1.7 ± 0.2
85 | CUCAAGCAAUAUUACGCAAU | -3.56 ± 0.31 | -1.53 ± 0.32
86 | CUCAAGCAAUAUUACGCGUA | -3.49 ± 0.22 | -1.78 ± 0.15
87 | CUCAAGCAAUAUUACGCUGC | -3.68 ± 0.21 | -2.63 ± 0.19
88 | CUCAAGCAAUAUUACGGCCU | -4.43 ± 0.39 | -2.53 ± 0.32
89 | CUCAAGCAAUAUUACGGCGA | -2.71 ± 0.2 | -1.87 ± 0.23
90 | CUCAAGCAAUAUUACGGCUU | -3.53 ± 0.18 | -2.65 ± 0.21
91 | CUCAAGCAAUAUUACGGGCA | -2.74 ± 0.15 | -2.48 ± 0.16
92 | CUCAAGCAAUAUUACGGUAG | -2.03 ± 0.074 | -0.579 ± 0.08
93 | CUCAAGCAAUAUUACGUAGC | -4.09 ± 0.25 | -2.59 ± 0.22
94 | CUCAAGCAAUAUUACGUAUA | -3.98 ± 0.19 | -2.59 ± 0.16
95 | CUCAAGCAAUAUUACGUGAC | -2.46 ± 0.15 | -0.92 ± 0.12
96 | CUCAAGCAAUAUUACGUGAG | -3.05 ± 0.11 | -3.3 ± 0.16
97 | CUCAAGCAAUAUUACGUUUG | -2.21 ± 0.12 | -2.8 ± 0.15
